Source: patent publication US20070004636

T1: human hepatocyte nuclear factor 1α (HNF-1α), His and Xpress-tagged at the N-terminus (not fully specified)
T1 chain: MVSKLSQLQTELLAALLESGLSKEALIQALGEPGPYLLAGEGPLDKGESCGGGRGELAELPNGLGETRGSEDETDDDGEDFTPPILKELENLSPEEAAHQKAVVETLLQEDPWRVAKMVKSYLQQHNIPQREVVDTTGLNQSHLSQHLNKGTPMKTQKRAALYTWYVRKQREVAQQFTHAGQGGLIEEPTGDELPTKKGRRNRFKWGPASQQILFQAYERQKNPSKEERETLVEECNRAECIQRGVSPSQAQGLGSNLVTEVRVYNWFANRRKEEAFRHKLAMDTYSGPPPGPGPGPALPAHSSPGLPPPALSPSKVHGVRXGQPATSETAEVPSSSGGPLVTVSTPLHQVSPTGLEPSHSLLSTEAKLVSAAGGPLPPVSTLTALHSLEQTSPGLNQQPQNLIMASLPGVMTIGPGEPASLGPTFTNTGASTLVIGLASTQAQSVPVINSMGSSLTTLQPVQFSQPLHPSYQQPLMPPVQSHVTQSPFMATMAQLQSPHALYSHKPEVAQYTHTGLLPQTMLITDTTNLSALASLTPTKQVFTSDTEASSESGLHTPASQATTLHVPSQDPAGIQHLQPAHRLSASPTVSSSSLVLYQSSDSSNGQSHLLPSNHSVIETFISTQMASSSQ

T2: human hepatocyte nuclear factor 4α (HNF-4α), His and Xpress-tagged at the N-terminus
T2 chain: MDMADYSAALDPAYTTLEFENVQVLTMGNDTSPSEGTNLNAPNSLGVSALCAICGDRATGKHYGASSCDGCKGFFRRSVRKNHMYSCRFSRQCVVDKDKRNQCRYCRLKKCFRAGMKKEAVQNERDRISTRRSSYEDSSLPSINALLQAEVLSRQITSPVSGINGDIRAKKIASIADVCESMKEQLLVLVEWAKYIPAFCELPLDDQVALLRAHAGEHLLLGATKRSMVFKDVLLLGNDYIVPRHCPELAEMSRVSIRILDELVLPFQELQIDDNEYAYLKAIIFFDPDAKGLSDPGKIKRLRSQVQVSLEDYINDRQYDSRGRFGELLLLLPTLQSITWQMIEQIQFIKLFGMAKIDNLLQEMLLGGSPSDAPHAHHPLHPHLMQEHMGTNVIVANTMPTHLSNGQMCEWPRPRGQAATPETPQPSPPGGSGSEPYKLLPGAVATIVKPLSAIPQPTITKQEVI

B1: rat m-calpain (Calpain 2, rat recombinant, E. coli, Calbiochem, Inc.) (protein)
chain: MAGIAMKLAKDREAAEGLGSHERAIKYLNQDYETLRNECLEAGALFQDPSFPALPSSLGFKELGPYSSKTRGIEWKRPTEICADPQFIIGGATRTDICQGALGDCWLLAAIASLTLNEEILARVVPLDQSFQENYAGIFHFQFWQYGEWVEVVVDDRLPTKDGELLFVHSAEGSEFWSALLEKAYAKINGCYEALSGGATTEGFEDFTGGIAEWYELRKPPPNLFKIIQKALEKGSLLGCSIDITSAADSEAVTYQKLVKGHAYSVTGAEEVESSGSLQKLIRIRNPWGQVEWTGKWNDNCPSWNTVDPEVRANLTERQEDGEFWMSFSDFLRHYSRLEICNLTPDTLTCDSYKKWKLTKMDGNWRRGSTAGGCRNYPNTFWMNPQYLIKLEEEDEDDEDGERGCTFLVGLIQKHRRRQRKMGEDMHTIGFGIYEVPEELTGQTNIHLSKNFFLTTRARERSDTFINLREVLNRFKLPPGEYVLVPSTFEPHKNGDFCIRVFSEKKADYQTVDDEIEANIEEIEANEEDIGDGFRRLFAQLAGEDAEISAFELQTILRRVLAKREDIKSDGFSIETCKIMVDMLDEDGSGKLGLKEFYILWTKIQKYQKIYREIDVDRSGTMNSYEMRKALEEAGFKLPCQLHQVIVARFADDELIIDFDNFVRCLVRLEILFKIFKQLDPENTGTIQLDLISWLSFSVL
B2: human µ-calpain extracted from human erythrocytes (Calpain 1, human erythrocytes; Calbiochem, Inc.) (protein)
chain: SEEIITPVYCTGVSAQVQKQRARELGLGRHENAIKYLGQDYEQLRVRCLQSGTLFRDEAFPPVPQSLGYKDLGPNSSKTYGIKWKRPTELLSNPQFIVDGATRTDICQGALGDCWLLAAIASLTLNDTLLHRVVPHGQSFQNGYAGIFHFQLWQFGEWVDVVVDDLLPIKDGKLVFVHSAEGNEFWSALLEKAYAKVNGSYEALSGGSTSEGFEDFTGGVTEWYELRKAPSDLYQIILKALERGSLLGCSIDISSVLDMEAITFKKLVKGHAYSVTGAKQVNYRGQVVSLIRMRNPWGEVEWTGAWSDSSSEWNNVDPYERDQLRVKMEDGEFWMSFRDFMREFTRLEICNLTPDALKSRTIRKWNTTLYEGTWRRGSTAGGCRNYPATFWVNPQFKIRLDETDDPDDYGDRESGCSFVLALMQKHRRRERRFGRDMETIGFAVYEVPPELVGQPAVHLKRDFFLANASRARSEQFINLREVSTRFRLPPGEYVVVPSTFEPNKEGDFVLRFFSEKSAGTVELDDQIQANLPDEQVLSEEEIDENFKALFRQLAGEDMEISVKELRTILNRIISKHKDLRTKGFSLESCRSMVNLMDRDGNGKLGLVEFNILWNRIRNYLSIFRKFDLDKSGSMSAYEMRMAIESAGFKLNKKLYELIITRYSEPDLAVDFDNFVCCLVRLETMFRFFKTLDTDLDGVVTFDLFKWLQLTMFA

Key:
[1] = molecular target: T1, human hepatocyte nuclear factor 1α …
[2] = molecular target: human insulin promoter factor 1 (IPF-1), His and Xpress-tagged at the N-terminus
human insulin promoter factor 1 (IPF-1), His and Xpress-tagged at the N-terminus, sequence (chain, as listed by the source): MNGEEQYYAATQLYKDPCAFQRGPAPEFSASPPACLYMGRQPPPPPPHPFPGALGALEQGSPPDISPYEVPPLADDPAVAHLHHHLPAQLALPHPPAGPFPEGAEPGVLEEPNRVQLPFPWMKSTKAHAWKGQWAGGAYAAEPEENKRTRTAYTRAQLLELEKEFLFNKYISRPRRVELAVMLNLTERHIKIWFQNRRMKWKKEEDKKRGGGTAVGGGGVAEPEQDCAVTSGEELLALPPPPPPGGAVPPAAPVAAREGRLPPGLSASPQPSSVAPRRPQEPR

[3] = molecular target: T2, human hepatocyte nuclear factor 4α …

| Protein | in vitro protein degradation test, Western blotting with anti-Omni/M21 and anti-HNF-1α antibody [1] | in vitro protein degradation test, Western blotting with anti-Xpress and anti-IPF-1 antibody [2] | in vitro protein degradation test, Western blotting with anti-HNF-4α antibody [3] |
| --- | --- | --- | --- |
| B1 | the in vitro degradation of HNF-1α by each of human µ-calpain, rabbit m-calpain and rat m-calpain was observed | the in vitro degradation of IPF-1 by each of human µ-calpain, rabbit m-calpain and rat m-calpain was observed |  |
| B2 | the in vitro degradation of HNF-1α by each of human µ-calpain, rabbit m-calpain and rat m-calpain was observed | the in vitro degradation of IPF-1 by each of human µ-calpain, rabbit m-calpain and rat m-calpain was observed | the degradation of HNF-4α by human µ-calpain was observed |
